Results as given in patent publication US20230303654A1 (CITY OF HOPE, published 2023).

How the values were obtained:
[1] = molecular target: purified 6× His-tagged SARS-CoV-2 spike protein (ELISA coat, Example 12) (SARS-CoV-2, UniProt P0DTC2 14-1213)
[2] = molecular target: purified 6× His-tagged SARS-CoV-2 spike protein (ELISA coat, Example 12) (SARS-CoV-2, UniProt P0DTC2 14-1213); remark: listed apart in the source

B1: ab14 (scFv, V domains shown)
VH: QVQLQQSGPGLVKPSQTLSLTCAISGDSVSSNSAAWNWIRQSPARGLEWLGRTYYRSRWYNDYAISMKSRITINPDTSKNQFSLQLESVTPEDTAVYYCAREIRGFDYWGQGTLVTVSS
VL: QSVLTQPPSASGSPGQSVTISCTGTSSDVGAYNFVSWYQHHPGKAPKLIIYDFNKRPSGVPDRFSGSKSGNTASLTVSGLQADDEADYYCSSYAGSNNFDVVFGGGTKLTVL
- EC50 [1]: 154 nM

B2: ab19 (scFv, V domains shown)
VH: EVQLVESGAEVKKPGESLKISCKGSGYSFTSYWIGWVRQMPGKGLEWMGIIYPGDSDTRYSPSFQGQVTISADKSISTAYLQWSSLKASDTAMYYCARRGDLDAFDIWGQGTMVTVSS
VL: QPGLTQPPAASGTPGQRVTVSCSGASANIGSNAVSWFKQFPETAPRLLISGNTHRPSGVPDRVSGSKSGTSASLTISGLQSDDEADYYCAAWDDSLNGYVFGSGTKVTVL
- EC50 [1]: 24.2 nM

B3: ab23 (scFv, V domains shown)
VH: EVQLVQSGAEVKKPGSSVKVSCRSSGGTFSTYGITWVRQAPGQGLEWMGRIIPSLGIPNYAQKFQGRVTITADTSVSTAWMELSSLESDDTAIYYCARENIDLATNDFWGQGTLVTVSS
VL: QSALTQPPSASGSPGQSVTISCTGTSRDIGAYGYVSWYQQVPGKAPKLIIYEVRNRPSGVSSRFSGSKSGNTASLTISGLQAEDEADYYCSSYTSSSTLDVVFGGGTKLTVL
- EC50 [1]: 116 nM

B4: ab31 (scFv, V domains shown)
VH: EVQLVESGAEVKKPGESLKISCKGSGYTFTRYWIGWVRQMPGKGLEWMGIIYPGDLDTRYSPSFQGHVTISADKSISTAYLQWNSLKASDTAMYYCARLPQYCYKGVCKRWFDPWGQGTLVTVSS
VL: EIVLTQSPSSVSASVGDRVTITCRASQGIRSWLAWYQQKPGKAPKLLIYAASSLQSGVPSRFSGSGSGTDFTLTISSLQPEDFATYYCQQGHSVPYTFGQGTNLEIK
- EC50 [1]: 40.4 nM

B5: ab32 (scFv, V domains shown)
VH: EVQLVESGAEVKKPGESLKISCKGSGYTFTRYWIGWVRQMPGKGLEWMGIIYPGDSETRYSPSFQGHVTISADKSISTAYLQWNSLKASDTAMYYCARLPQYCRRGVCKRWFDPWGQGTLVTVSS
VL: EIVLTQSPSSVSASVGDRVTITCRASQGISSWLAWYQQKPGKAPKLLIYAASSLQSGVPSRFSGSGSGTDFTLTISSLQPEDFATYYCQQGNQLPYTFGQGTNLEIK
- EC50 [1]: 13.1 nM

B6: ab33 (scFv, V domains shown)
VH: EVQLVESGAEVKKPGESLKISCKGSGYTFTRYWIGWVRQMPGKGLEWMGIIYPGDSDTRYSPSFQGHVTISADKSISTAYLQWNSLKASDTAMYYCARLPQYCRAGKCKRWFDPWGQGTLVTVSS
VL: EIVLTQSPSSVSASVGDRVTITCRASQGISSWLAWYQQKPGKAPKLLIYAASSLQSGVPSRFSGSGSGTDFTLTISSLQPEDFATYYCQQGNQYPYTFGQGTNLEIK
- EC50 [1]: 33.4 nM

B7: ab34 (scFv, V domains shown)
VH: EVQLVESGAEVKKPGESLKISCKGSGYTFTRYWIGWVRQMPGKGLEWMGIIYPGDADVRYSPSFQGHVTISADKSISTAYLQWNSLKASDTAMYYCARLPQYCRKGVCKRWFDPWGQGTLVTVSS
VL: EIVLTQSPSSVSASVGDRVTITCRASQGIRSWLAWYQQKPGKAPKLLIYAASSLQSGVPSRFSGSGSGTDFTLTISSLQPEDFATYYCQQGHSTPYTFGQGTNLEIK
- EC50 [1]: 22.7 nM

B8: ab35 (scFv, V domains shown)
VH: EVQLVESGAEVKKPGESLKISCKGSGYTFTRYWIGWVRQMPGKGLEWMGIIYPGDADTRYSPSFQGHVTISADKSISTAYLQWNSLKASDTAMYYCARLPQYCSRGVCQRWFDPWGQGTLVTVSS
VL: EIVLTQSPSSVSASVGDRVTITCRASQGISSWLAWYQQKPGKAPKLLIYAASSLQSGVPSRFSGSGSGTDFTLTISSLQPEDFATYYCQQGNQFPYTFGQGTNLEIK
- EC50 [1]: 39 nM

B9: Anti-spike RBD Ab36 scFv (scFv)
scFv: ELVMTQSPSSVSASVGDRVTITCRASQAIGSWLAWYQQKPGKAPKLLISSASSLQSGVPSRFSGSGSGTDFTLTISSLQPEDFATYYCQQLDSYPVTFGPGTKVDIKGGSSRSSEVQLLESGGGLIQPGGSLRLSCAASGLTVSSNYMSWVRQAPGKGLEWVSVIYSGGSTYYADSVKGRFTISRDNSKNTLYLQMNSLRAEDTAVYYCARAIDSGAFDIWGQGTMVTVSSGSASAPTL
- EC50 [2]: 31.2 nM

B10: Anti-spike RBD Ab38 scFv (scFv)
scFv: ELQMTQSPSSLSASVGDRVTITCRASQSISSYLNWYQQKPGKAPKLLIYAASSLQSGVPSRFSGSGSGTDFTLTISSLQPEDFATYYCQQANSFPLTFGGGTKVEIKGGSSRSSQVQLVQSGAEVKKPGSSVKVSCKASGGTLSENGFSWVRQAPGQGLEWMGRIVPMFDISNYAERFQDRVTITADGSTNTAYMELRSLRLEDTAVYYCARDAVATSPGVYQHYGMDVWGQGTTVTVSSASTKGPSV
- EC50 [2]: 10.6 nM

B11: ab40 (scFv, V domains shown)
VH: EVQLVESGAEVKKPGESLKISCKGSGYTFTRYWIGWVRQMPGKGLEWMGIIYPGDSETRYSPSFQGHVTISADKSISTAYLQWNSLKASDTAMYYCARLPQYCRSGVCQRWFDPWGQGTLVTVSS
VL: EIVLTQSPSSVSASVGDRVTITCRASQGISSWLAWYQQKPGKAPKLLIYAASSLQSGVPSRFSGSGSGTDFTLTISSLQPEDFATYYCQQGNQVPYTFGQGTNLEIK
- EC50 [1]: 40 nM

B12: ab41 (scFv, V domains shown)
VH: EVQLVESGAEVKKPGESLKISCKGSGYTFTRYWIGWVRQMPGKGLEWMGIIYPGDNDVRYSPSFQGHVTISADKSISTAYLQWNSLKASDTAMYYCARLPQYCSAGVCFRWFDPWGQGTLVTVSS
VL: EIVLTQSPSSVSASVGDRVTITCRASQGISNWLAWYQQKPGKAPKLLIYAASSLQSGVPSRFSGSGSGTDFTLTISSLQPEDFATYYCQQGYSYPYTFGQGTNLEIK
- EC50 [1]: 34.1 nM

B13: ab42 (scFv, V domains shown)
VH: EVQLVESGAEVKKPGESLKISCKGSGYTFTRYWIGWVRQMPGKGLEWMGIIYPGDSDTRYSPSFQGHVTISADKSISTAYLQWNSLKASDTAMYYCARLPQYCQSGVCKRWFDPWGQGTLVTVSS
VL: EIVLTQSPSSVSASVGDRVTITCRASQGIRSWLAWYQQKPGKAPKLLIYAASSLQSGVPSRFSGSGSGTDFTLTISSLQPEDFATYYCQQGDQYPLTFGQGTNLEIK
- EC50 [1]: 721 nM

B14: ab43 (scFv, V domains shown)
VH: EVQLVESGAEVKKPGESLKISCKGSGYTFTRYWIGWVRQMPGKGLEWMGIIYPGDSDTRYSPSFQGHVTISADKSISTAYLQWNSLKASDTAMYYCARLPQYCSAGVCFRWFDPWGQGTLVTVSS
VL: EIVLTQSPSSVSASVGDRVTITCRASQGISSWLAWYQQKPGKAPKLLIYAASSLQSGVPSRFSGSGSGTDFTLTISSLQPEDFATYYCQQGHSFPYTFGQGTNLEIK
- EC50 [1]: 216 nM

B15: ab44 (scFv, V domains shown)
VH: EVQLVESGAEVKKPGESLKISCKGSGYTFTRYWIGWVRQMPGKGLEWMGIIYPGDLDVRYSPSFQGHVTISADKSISTAYLQWNSLKASDTAMYYCARLPQYCREGKCHRWFDPWGQGTLVTVSS
VL: EIVLTQSPSSVSASVGDRVTITCRASQGIRNWLAWYQQKPGKAPKLLIYAASSLQSGVPSRFSGSGSGTDFTLTISSLQPEDFATYYCQQGDQDPLTFGQGTNLEIK
- EC50 [1]: 28.2 nM

B16: ab45 (scFv, V domains shown)
VH: EVQLVESGAEVKKPGESLKISCKGSGYTFTRYWIGWVRQMPGKGLEWMGIIYPGDSDTRYSPSFQGHVTISADKSISTAYLQWNSLKASDTAMYYCARLPQYCSSGVCQRWFDPWGQGTLVTVSS
VL: EIVLTQSPSSVSASVGDRVTITCRASQGISSWLAWYQQKPGKAPKLLIYAASSLQSGVPSRFSGSGSGTDFTLTISSLQPEDFATYYCQQGNQFPYTFGQGTNLEIK
- EC50 [1]: 37.3 nM

B17: ab46 (scFv, V domains shown)
VH: EVQLVESGAEVKKPGESLKISCKGSGYTFTRYWIGWVRQMPGKGLEWMGIIYPGDSDTRYSPSFQGHVTISADKSISTAYLQWNSLKASDTAMYYCARLPQYCSSGVCHRWFDPWGQGTLVTVSS
VL: EIVLTQSPSSVSASVGDRVTITCRASQGISSWLAWYQQKPGKAPKLLIYAASSLQSGVPSRFSGSGSGTDFTLTISSLQPEDFATYYCQQGHSFPYTFGQGTNLEIK
- EC50 [1]: 106 nM

B18: ab47 (scFv, V domains shown)
VH: EVQLVESGAEVKKPGESLKISCKGSGYTFTRYWIGWVRQMPGKGLEWMGIIYPGDSDTRYSPSFQGHVTISADKSISTAYLQWNSLKASDTAMYYCARLPQYCQNGVCHRWFDPWGQGTLVTVSS
VL: EIVLTQSPSSVSASVGDRVTITCRASQGIRNWLAWYQQKPGKAPKLLIYAASSLQSGVPSRFSGSGSGTDFTLTISSLQPEDFATYYCQQGDQDPLTFGQGTNLEIK
- EC50 [1]: 81.7 nM

B19: ab48 (scFv, V domains shown)
VH: EVQLVESGAEVKKPGESLKISCKGSGYTFTRYWIGWVRQMPGKGLEWMGIIYPGDNDVRYSPSFQGHVTISADKSISTAYLQWNSLKASDTAMYYCARLPQYCDKGICKRWFDPWGQGTLVTVSS
VL: EIVLTQSPSSVSASVGDRVTITCRASQGISSWLAWYQQKPGKAPKLLIYAASSLQSGVPSRFSGSGSGTDFTLTISSLQPEDFATYYCQQGDQLPYTFGQGTNLEIK
- EC50 [1]: 1560 nM

B20: ab49 (scFv, V domains shown)
VH: EVQLVESGAEVKKPGESLKISCKGSGYTFTRYWIGWVRQMPGKGLEWMGIIYPGDSDTRYSPSFQGHVTISADKSISTAYLQWNSLKASDTAMYYCARLPQYCENGICKRWFDPWGQGTLVTVSS
VL: EIVLTQSPSSVSASVGDRVTITCRASQGIRSWLAWYQQKPGKAPKLLIYAASSLQSGVPSRFSGSGSGTDFTLTISSLQPEDFATYYCQQGDQYPLTFGQGTNLEIK
- EC50 [1]: 234 nM

B21: ab50 (scFv, V domains shown)
VH: EVQLVESGAEVKKPGESLKISCKGSGYTFTRYWIGWVRQMPGKGLEWMGIIYPGDADVRYSPSFQGHVTISADKSISTAYLQWNSLKASDTAMYYCARLPQYCSSGSCFRWFDPWGQGTLVTVSS
VL: EIVLTQSPSSVSASVGDRVTITCRASQGISSWLAWYQQKPGKAPKLLIYAASSLQSGVPSRFSGSGSGTDFTLTISSLQPEDFATYYCQQGYSTPYTFGQGTNLEIK
- EC50 [1]: 165 nM
